Experimental findings from publication doi:10.1101/808618 (bioRxiv, 2020) are described below.

Residue numbers refer to the chain shown, from its start. Names and notes keep the numbering of the source.

First the molecules themselves.
B1: Plasmodium falciparum GMP synthetase wildtype (enzyme)
chain: MEGEEYDKILVLNFGSQYFHLIVKRLNNIKIFSETKDYGVELKDIKDMNIKGVILSGGPYSVTEAGSPHLKKEVFEYFLEKKIPIFGICYGMQEIAVQMNGEVKKSKTSEYGCTDVNILRNDNINNITYCRNFGDSSSAMDLYSNYKLMNETCCLFENIKSDITTVWMNHNDEVTKIPENFYLVSSSENCLICSIYNKEYNIYGVQYHPEVYESLDGELMFYNFAYNICKCKKQFDPIRYHELELKNIEKYKHDHYVIAAMSGGIDSTVAAAYTHKIFKERFFGIFIDNGLLRKNEAENVYTFLKSTFPDMNITKIDASENFLSNLQGVTDPEQKRKIIGKLFIEEFEKAVNNIDIDINKTFLLQGTLYPDIIESKCSKNLSDTIKTHHNVGGLPKNLKFKLFEPFKYLFKDDVKTLSRELNLPEEITNRHPFPGPGLAIRVIGEINKHKLNILREVDDIFINDLKQYGLYNQISQAFAVLLSSKSVGVRGDARSYDYVCVLRAVKTSSFMTANWYQIPYDILDKITTRILSEVKGVNRILYDVSSKPPATIEFE
B2: PfGMPS_K415L (enzyme, Plasmodium falciparum)
chain: B1 chain with K415L
B3: PfGMPS D413A (enzyme, Plasmodium falciparum)
chain: B1 chain with D413A
B4: PfGMPS E553L (enzyme, Plasmodium falciparum)
chain: B1 chain with E553L
B5: PfGMPS K547L (enzyme, Plasmodium falciparum)
chain: B1 chain with K547L
B6: PfGMPS_K24L (enzyme, Plasmodium falciparum)
chain: B1 chain with K24L
B7: PfGMPS_T387A (enzyme, Plasmodium falciparum)
chain: B1 chain with T387A
B8: PfGMPS_K411L (enzyme, Plasmodium falciparum)
chain: B1 chain with K411L
B9: PfGMPS_N390A (enzyme, Plasmodium falciparum)
chain: B1 chain with N390A
B10: PfGMPS_H388A (enzyme, Plasmodium falciparum)
chain: B1 chain with H388A
B11: PfGMPS_K386L (enzyme, Plasmodium falciparum)
chain: B1 chain with K386L
B12: PfGMPS K160L (enzyme, Plasmodium falciparum)
chain: B1 chain with K160L
B13: PfGMPS H389A (enzyme, Plasmodium falciparum)
chain: B1 chain with H389A
B14: PfGMPS K376L (enzyme, Plasmodium falciparum)
chain: B1 chain with K376L
B15: PfGMPS_E555L (enzyme, Plasmodium falciparum)
chain: B1 chain with E555L
B16: PfGMPS_E213A (enzyme, Plasmodium falciparum)
chain: B1 chain with E213A
B17: PfGMPS R539L (enzyme, Plasmodium falciparum)
chain: B1 chain with R539L
B18: PfGMPS R25L (enzyme, Plasmodium falciparum)
chain: B1 chain with R25L
B19: PfGMPS_D412A (enzyme, Plasmodium falciparum)
chain: B1 chain with D412A

This series deals with the molecule itself. Description: SEC.
B1: the binding result is “binds”.
The value for B2 was “binds”; that for B3 was “binds”.
The value for B4 was “binds”; that for B5 was “binds”; that for B6 was “binds”.
On to B7, for which the binding result is “binds”.
For B8 the value was “binds”; for B9, “binds”; for B10, “binds”.
For B11 the value was “binds”; for B12, “binds”; for B13, “binds”.
The value for B14 was “binds”; that for B15 was “binds”; that for B16 was “binds”.
On to B17, for which the binding result is reported as “binds”.
For B18 the value was “binds”; for B19, “binds”.
